From article PMC10086252, “Tomato chlorosis virus CPm protein is a pathogenicity determinant and suppresses host local RNA silencing induced by single-stranded RNA”

Target: CPm (minor coat protein) (Tomato chlorosis virus, UniProt A0A088FMK1 1-669)
Experiment: EMSA; […], room temperature 30 min; […]; binding buffer, […]
Details: protein: recombinant; tags: His (pET28a); label: 5'-biotin; single strand

UCAACAGGAUCGAGCUUAAGG (ssRNA) [siRGFP-guide (single-stranded GFP RNA probe)]
binding result: no binding
